The results in this text go back to the Human Domainome abundance scans (Beltran et al. 2025).

To fix the notation:
B1: Calcium-binding protein 2, residues 155 to 219; numbered along this chain, Q9NPB3 (parent)
chain: RELRDAFREFDTNGDGRISVGELRAALKALLGERLSQREVDEILQDVDLNGDGLVDFEEFVRMMS

± gives the uncertainty stated by the source.

In this series the parent is B1. Put plainly: abundance fitness (aPCA) (normalised: wild type 0, dead -1); higher = more abundant; growth selection in yeast, the domain comes from the species named. The conditions noted are these: Homo sapiens.
On to RELRDAFREFDTNGDGRISVGELRAALKALLGERLSQREVDEILQDVDLNGDGLVDFEEFERMMS [V61E], for which the abundance fitness was found to be 0.012 ± 0.17.
Regarding RELRDAFREFDTNGDGRISVGELRAALKALLGERLSQREVDEILQDVDLNGDGLVDFEEFRRMMS [V61R], the abundance fitness is -0.04 ± 0.057.
As to RELRDAFREFDTNGDGRISVHELRAALKALLGERLSQREVDEILQDVDLNGDGLVDFEEFVRMMS [G21H], the abundance fitness is -0.328 ± 0.3.
For the variant RELRDAFREFDTNGDGRISVQELRAALKALLGERLSQREVDEILQDVDLNGDGLVDFEEFVRMMS [G21Q], the abundance fitness was -0.001 ± 0.11.
As to RELRDAFREFDTNGDGRISVPELRAALKALLGERLSQREVDEILQDVDLNGDGLVDFEEFVRMMS [G21P], the abundance fitness was 0.044 ± 0.052.
In the case of RELRDAFREFDTNGDGRISVGELRAALKALLGERLSQREVDEILIDVDLNGDGLVDFEEFVRMMS [Q45I] it was -0.01 ± 0.13; in that of RELRDAFREFDTNGDGRIGVGELRAALKALLGERLSQREVDEILQDVDLNGDGLVDFEEFVRMMS [S19G], -0.045 ± 0.1.
As for RELRDAFREFDTNGDGRISVGELRAALKALLGERLSQAEVDEILQDVDLNGDGLVDFEEFVRMMS [R38A], the abundance fitness amounted to 0.001 ± 0.068.
As to RELRDAFREFDTNGDGRISVGELRAALKALLGERLSQFEVDEILQDVDLNGDGLVDFEEFVRMMS [R38F], the abundance fitness is -0.104 ± 0.2.
Turning to RELRDAFREFDTNGDGRISVGELRAALKALLGERLSQSEVDEILQDVDLNGDGLVDFEEFVRMMS [R38S], the abundance fitness came out at 0.001 ± 0.08.
As to RELRDAFREFDTNGDGRISVGELRAALKALLGERLSQREVTEILQDVDLNGDGLVDFEEFVRMMS [D41T], the abundance fitness is -0.104 ± 0.056.
For RELRDAFREFDTNGDGRISVGELRAALKALLGERLSQREVREILQDVDLNGDGLVDFEEFVRMMS [D41R], the abundance fitness is -0.15 ± 0.062.
Turning to RELFDAFREFDTNGDGRISVGELRAALKALLGERLSQREVDEILQDVDLNGDGLVDFEEFVRMMS [R4F], the abundance fitness was -0.321 ± 0.16.
Regarding RELRDAFKEFDTNGDGRISVGELRAALKALLGERLSQREVDEILQDVDLNGDGLVDFEEFVRMMS [R8K], the abundance fitness is -0.068 ± 0.15.
Take RELRDAFGEFDTNGDGRISVGELRAALKALLGERLSQREVDEILQDVDLNGDGLVDFEEFVRMMS [R8G]: the abundance fitness is -0.238 ± 0.096.
Take RELRDAFRWFDTNGDGRISVGELRAALKALLGERLSQREVDEILQDVDLNGDGLVDFEEFVRMMS [E9W]: the abundance fitness was -0.416 ± 0.069.
On to RELRDAFRMFDTNGDGRISVGELRAALKALLGERLSQREVDEILQDVDLNGDGLVDFEEFVRMMS [E9M], for which the abundance fitness was -0.135 ± 0.092.
With RELRDAFRAFDTNGDGRISVGELRAALKALLGERLSQREVDEILQDVDLNGDGLVDFEEFVRMMS [E9A], the abundance fitness was -0.189 ± 0.071.
With RELRDAFREFDTNGDGRISVGELRAALKALLGERLSQREVDEILQDVNLNGDGLVDFEEFVRMMS [D48N] the figure was 0.122 ± 0.13; with RELRDAFREFDTNGDGRISVGELRAALKALLGERLSQREVDQILQDVDLNGDGLVDFEEFVRMMS [E42Q], -0.272 ± 0.1.
Consider RELRDAFREFDTNGDGRISVGELRAALKALLGERLSQREVDEILQDVDLNGDGLVDFEEFVRPMS [M63P], for which the abundance fitness is -0.614 ± 0.1.
With RELRDAFREFDTNGDGRISVGELRAALKALLGERLSQREVDEILQDVDLNGDGLVDFEEFVRAMS [M63A], the abundance fitness was -0.048 ± 0.094.
Turning to RELRDAFREFDTNGDGRISVGELRAALKALLGERLSQREVDEILQDVDLNGDGLVDFEEFVRRMS [M63R], the abundance fitness is -0.404 ± 0.065.
For the variant RELRDAFREFDTNGDGRISVGELRAALKALLGERLSQREVDEILQDVDLNGDGLVDFEEFVRTMS [M63T], the abundance fitness is 0.102 ± 0.069.
RELRDAFREFDTNGDGRISVGELRAALKALLGERLSQREVDEILQKVDLNGDGLVDFEEFVRMMS [D46K]: the abundance fitness is -0.148 ± 0.13.
For RELRDAFREFDTNGDGRISVGELRAALKALEGERLSQREVDEILQDVDLNGDGLVDFEEFVRMMS [L31E], the abundance fitness was determined as 0.069 ± 0.082.
Consider RELRDAFREFDTNGDGRISVGELRAALAALLGERLSQREVDEILQDVDLNGDGLVDFEEFVRMMS [K28A], for which the abundance fitness was determined as 0.127 ± 0.31.
RELRDAFREFDTNGDGRISVGELRAALKALLGQRLSQREVDEILQDVDLNGDGLVDFEEFVRMMS [E33Q]: the abundance fitness was -0.009 ± 0.071.
As for RELRDAFREFDTNGDGRISVGELRAALKALLGDRLSQREVDEILQDVDLNGDGLVDFEEFVRMMS [E33D], the abundance fitness is 0.074 ± 0.092.
With RELRDAFREFDTNGDGRISVGELRAALKALLGERLSQREVDEILQDVDLNGDGCVDFEEFVRMMS [L54C], the abundance fitness is -0.21 ± 0.14.
In the case of RELRDAFREFDTNGDGRISVGELRAALKALLGERASQREVDEILQDVDLNGDGLVDFEEFVRMMS [L35A] it was 0.1 ± 0.082; in that of RELRDAFREFDTNGDGRISVGELRAALKALLGEGLSQREVDEILQDVDLNGDGLVDFEEFVRMMS [R34G], 0.032 ± 0.077; in that of RELRDAFREFDTNGDGRISVGELRAALKALLGECLSQREVDEILQDVDLNGDGLVDFEEFVRMMS [R34C], 0.056 ± 0.1.
With RELRDAFREFDTNGDGRISVGELRAALKALLGEKLSQREVDEILQDVDLNGDGLVDFEEFVRMMS [R34K] the figure was 0.187 ± 0.092; with SELRDAFREFDTNGDGRISVGELRAALKALLGERLSQREVDEILQDVDLNGDGLVDFEEFVRMMS [R1S], -0.113 ± 0.1; with RELRDAFREFDTNGDGRISVGELRAALKALLGERLSQREVDEILQDVDLNGDGLVDFFEFVRMMS [E58F], -0.331 ± 0.24.
Consider RELRDAFREFDTNGDGRISVGELRAALKALLGERLSQREVDEILQDVDLNGDGLVDFSEFVRMMS [E58S], for which the abundance fitness is -0.019 ± 0.077.
As to RELRDAFREFDTNGDGFISVGELRAALKALLGERLSQREVDEILQDVDLNGDGLVDFEEFVRMMS [R17F], the abundance fitness was -0.021 ± 0.16.
Consider RELRDAFREFDTNGDGIISVGELRAALKALLGERLSQREVDEILQDVDLNGDGLVDFEEFVRMMS [R17I], for which the abundance fitness is -0.141 ± 0.12.
On to RELRDAFREFDTNGDGSISVGELRAALKALLGERLSQREVDEILQDVDLNGDGLVDFEEFVRMMS [R17S], for which the abundance fitness is -0.087 ± 0.078.
For RELRDAFREFDTNGDGVISVGELRAALKALLGERLSQREVDEILQDVDLNGDGLVDFEEFVRMMS [R17V], the abundance fitness was -0.158 ± 0.053.
